B1: peptide compound SEQ ID NO: 17 (peptide)
peptide: Ac-[dK]NTWQR[Tyr(Me)″][1Nal]K(Ac)DNN-NH2
modifications: lactam 1-10
SMILES: COc1ccc(C[C@@H]2NC(=O)[C@H](CCCNC(=N)N)NC(=O)[C@H](CCC(N)=O)NC(=O)[C@H](Cc3c[nH]c4ccccc34)NC(=O)[C@H]([C@@H](C)O)NC(=O)[C@H](CC(N)=O)NC(=O)[C@H](NC(C)=O)CCCCNC(=O)C[C@@H](C(=O)N[C@@H](CC(N)=O)C(=O)N[C@@H](CC(N)=O)C(N)=O)NC(=O)[C@H](CCCCNC(C)=O)NC(=O)[C@H](Cc3cccc4ccccc34)NC2=O)cc1
notes: synthetic macrolactam
B2: peptide compound SEQ ID NO: 19 (peptide)
peptide: Ac-[dK]NTWQR[Tyr(Me)″][1Nal]QDNN-NH2
modifications: lactam 1-10
SMILES: COc1ccc(C[C@@H]2NC(=O)[C@H](CCCNC(=N)N)NC(=O)[C@H](CCC(N)=O)NC(=O)[C@H](Cc3c[nH]c4ccccc34)NC(=O)[C@H]([C@@H](C)O)NC(=O)[C@H](CC(N)=O)NC(=O)[C@H](NC(C)=O)CCCCNC(=O)C[C@@H](C(=O)N[C@@H](CC(N)=O)C(=O)N[C@@H](CC(N)=O)C(N)=O)NC(=O)[C@H](CCC(N)=O)NC(=O)[C@H](Cc3cccc4ccccc34)NC2=O)cc1
notes: synthetic macrolactam
B3: peptide compound SEQ ID NO: 30 (peptide)
peptide: Ac-[dK]NTWQR[Tyr(Me)″][2Nal]QDNN-NH2
modifications: lactam 1-10
SMILES: COc1ccc(C[C@@H]2NC(=O)[C@H](CCCNC(=N)N)NC(=O)[C@H](CCC(N)=O)NC(=O)[C@H](Cc3c[nH]c4ccccc34)NC(=O)[C@H]([C@@H](C)O)NC(=O)[C@H](CC(N)=O)NC(=O)[C@H](NC(C)=O)CCCCNC(=O)C[C@@H](C(=O)N[C@@H](CC(N)=O)C(=O)N[C@@H](CC(N)=O)C(N)=O)NC(=O)[C@H](CCC(N)=O)NC(=O)[C@H](Cc3ccc4ccccc4c3)NC2=O)cc1
notes: synthetic macrolactam
B4: peptide compound SEQ ID NO: 40 (peptide)
peptide: [Ahx]NTWQ[Agb][Phe(4-OMe)][2Nal][Aib]ENN-NH2
modifications: lactam N-10
SMILES: COc1ccc(C[C@@H]2NC(=O)[C@H](CCNC(=N)N)NC(=O)[C@H](CCC(N)=O)NC(=O)[C@H](Cc3c[nH]c4ccccc34)NC(=O)[C@H]([C@@H](C)O)NC(=O)[C@H](CC(N)=O)NC(=O)CCCCCNC(=O)CC[C@@H](C(=O)N[C@@H](CC(N)=O)C(=O)N[C@@H](CC(N)=O)C(N)=O)NC(=O)C(C)(C)NC(=O)[C@H](Cc3ccc4ccccc4c3)NC2=O)cc1
B5: peptide compound SEQ ID NO: 47 (peptide)
peptide: Ac-[dK]NTWQA[Tyr(Me)″][2Nal]RDNN-NH2
modifications: lactam 1-10
SMILES: COc1ccc(C[C@@H]2NC(=O)[C@H](C)NC(=O)[C@H](CCC(N)=O)NC(=O)[C@H](Cc3c[nH]c4ccccc34)NC(=O)[C@H]([C@@H](C)O)NC(=O)[C@H](CC(N)=O)NC(=O)[C@H](NC(C)=O)CCCCNC(=O)C[C@@H](C(=O)N[C@@H](CC(N)=O)C(=O)N[C@@H](CC(N)=O)C(N)=O)NC(=O)[C@H](CCCNC(=N)N)NC(=O)[C@H](Cc3ccc4ccccc4c3)NC2=O)cc1
notes: synthetic macrolactam
B6: peptide compound SEQ ID NO: 16 (peptide)
peptide: Ac-[dK]NTWQR[Tyr(Me)][1Nal][Aib]ENN-NH2
modifications: lactam 1-10
SMILES: COc1ccc(C[C@@H]2NC(=O)[C@H](CCCNC(=N)N)NC(=O)[C@H](CCC(N)=O)NC(=O)[C@H](Cc3c[nH]c4ccccc34)NC(=O)[C@H]([C@@H](C)O)NC(=O)[C@H](CC(N)=O)NC(=O)[C@H](NC(C)=O)CCCCNC(=O)CC[C@@H](C(=O)N[C@@H](CC(N)=O)C(=O)N[C@@H](CC(N)=O)C(N)=O)NC(=O)C(C)(C)NC(=O)[C@H](Cc3cccc4ccccc34)NC2=O)cc1
B7: peptide compound SEQ ID NO: 11 (peptide)
peptide: Ac-[dD]NTWQR[Tyr(Me)][1Nal][Aib]KNN-NH2
modifications: lactam 1-10
SMILES: COc1ccc(C[C@@H]2NC(=O)[C@H](CCCNC(=N)N)NC(=O)[C@H](CCC(N)=O)NC(=O)[C@H](Cc3c[nH]c4ccccc34)NC(=O)[C@H]([C@@H](C)O)NC(=O)[C@H](CC(N)=O)NC(=O)[C@H](NC(C)=O)CC(=O)NCCCC[C@@H](C(=O)N[C@@H](CC(N)=O)C(=O)N[C@@H](CC(N)=O)C(N)=O)NC(=O)C(C)(C)NC(=O)[C@H](Cc3cccc4ccccc34)NC2=O)cc1
B8: peptide compound SEQ ID NO: 38 (peptide)
peptide: Ac-[Orn]NTWQR[AEF][2Nal][Aib]ENN-NH2
modifications: lactam 1-10
SMILES: CC(=O)N[C@H]1CCCNC(=O)CC[C@@H](C(=O)N[C@@H](CC(N)=O)C(=O)N[C@@H](CC(N)=O)C(N)=O)NC(=O)C(C)(C)NC(=O)[C@H](Cc2ccc3ccccc3c2)NC(=O)[C@H](Cc2ccc(OCCN)cc2)NC(=O)[C@H](CCCNC(=N)N)NC(=O)[C@H](CCC(N)=O)NC(=O)[C@H](Cc2c[nH]c3ccccc23)NC(=O)[C@H]([C@@H](C)O)NC(=O)[C@H](CC(N)=O)NC1=O
B9: peptide compound SEQ ID NO: 26 (peptide)
peptide: Ac-[dK]NTWQR[Tyr(Me)][2Nal][Aib]DN-NH2
modifications: lactam 1-10
SMILES: COc1ccc(C[C@@H]2NC(=O)[C@H](CCCNC(=N)N)NC(=O)[C@H](CCC(N)=O)NC(=O)[C@H](Cc3c[nH]c4ccccc34)NC(=O)[C@H]([C@@H](C)O)NC(=O)[C@H](CC(N)=O)NC(=O)[C@H](NC(C)=O)CCCCNC(=O)C[C@@H](C(=O)N[C@@H](CC(N)=O)C(N)=O)NC(=O)C(C)(C)NC(=O)[C@H](Cc3ccc4ccccc4c3)NC2=O)cc1
B10: peptide compound SEQ ID NO: 51 (peptide)
peptide: Ac-[dK]NTWQA[Phe(4-OMe)][2Nal][Thp]DNN-NH2
modifications: lactam 1-10
SMILES: COc1ccc(C[C@@H]2NC(=O)[C@H](C)NC(=O)[C@H](CCC(N)=O)NC(=O)[C@H](Cc3c[nH]c4ccccc34)NC(=O)[C@H]([C@@H](C)O)NC(=O)[C@H](CC(N)=O)NC(=O)[C@H](NC(C)=O)CCCCNC(=O)C[C@@H](C(=O)N[C@@H](CC(N)=O)C(=O)N[C@@H](CC(N)=O)C(N)=O)NC(=O)C3(CCOCC3)NC(=O)[C@H](Cc3ccc4ccccc4c3)NC2=O)cc1
B11: peptide compound SEQ ID NO: 18 (peptide)
peptide: Ac-[dK]NTWQR[Tyr(Me)][1Nal][Cit]DNN-NH2
modifications: lactam 1-10
SMILES: COc1ccc(C[C@@H]2NC(=O)[C@H](CCCNC(=N)N)NC(=O)[C@H](CCC(N)=O)NC(=O)[C@H](Cc3c[nH]c4ccccc34)NC(=O)[C@H]([C@@H](C)O)NC(=O)[C@H](CC(N)=O)NC(=O)[C@H](NC(C)=O)CCCCNC(=O)C[C@@H](C(=O)N[C@@H](CC(N)=O)C(=O)N[C@@H](CC(N)=O)C(N)=O)NC(=O)[C@H](CCCNC(N)=O)NC(=O)[C@H](Cc3cccc4ccccc34)NC2=O)cc1
B12: peptide compound SEQ ID NO: 14 (peptide)
peptide: Ac-[dK]NTWQRY[1Nal][Aib]DNN-NH2
modifications: lactam 1-10
SMILES: CC(=O)N[C@@H]1CCCCNC(=O)C[C@@H](C(=O)N[C@@H](CC(N)=O)C(=O)N[C@@H](CC(N)=O)C(N)=O)NC(=O)C(C)(C)NC(=O)[C@H](Cc2cccc3ccccc23)NC(=O)[C@H](Cc2ccc(O)cc2)NC(=O)[C@H](CCCNC(=N)N)NC(=O)[C@H](CCC(N)=O)NC(=O)[C@H](Cc2c[nH]c3ccccc23)NC(=O)[C@H]([C@@H](C)O)NC(=O)[C@H](CC(N)=O)NC1=O
notes: synthetic macrolactam

Numbered stars: 1 amine (or outer) side, 2 acyl side, 3 side chain; on linkers, the order of the positions; unused ones are H or OH. Bridge positions count the residues as written; N and C are the ends. Square brackets hold non-standard residues; d marks the D form. Primed or numbered codes have the meaning given here. Phe(4-OMe) = Yme, 4-methoxy-L-phenylalanine (O-methyl-tyrosine), COc1ccc(C[C@H](N[*:1])C(=O)[*:2])cc1; Tyr(Me) = Yme = 4-methoxy-L-phenylalanine (O-methyl-tyrosine), COc1ccc(C[C@H](N[*:1])C(=O)[*:2])cc1; Tyr(Me)″ = O-methyl-tyrosine (4-methoxy-phenylalanine), COc1ccc(C[C@H](N[*:1])C(=O)[*:2])cc1; 1Nal = N[C@@H](Cc1cccc2ccccc12)C(=O)O; 2Nal = N[C@@H](Cc1ccc2ccccc2c1)C(=O)O; AEF = NCCOc1ccc(C[C@H](N)C(=O)O)cc1; Cit = NC(=O)NCCC[C@H](N)C(=O)O; Agb = N=C(N)NCC[C@H](N)C(=O)O; Orn = NCCC[C@H](N)C(=O)O; Thp = NC1(C(=O)O)CCOCC1; Aib = CC(C)(N)C(=O)O; Ahx = NCCCCCC(=O)O

The IC50 is the point on the concentration scale where inhibition reaches its midpoint.

In one test the target is T1, recombinant human IL-23R-Fc chimera (human, UniProt Q5VWK5 24-353, limits assumed).
T1 construct: Recombinant reagent; also called interleukin-23 receptor; not shown: detected with goat anti-hu-IgG1-HRP antibody
T1 sequence (looked up): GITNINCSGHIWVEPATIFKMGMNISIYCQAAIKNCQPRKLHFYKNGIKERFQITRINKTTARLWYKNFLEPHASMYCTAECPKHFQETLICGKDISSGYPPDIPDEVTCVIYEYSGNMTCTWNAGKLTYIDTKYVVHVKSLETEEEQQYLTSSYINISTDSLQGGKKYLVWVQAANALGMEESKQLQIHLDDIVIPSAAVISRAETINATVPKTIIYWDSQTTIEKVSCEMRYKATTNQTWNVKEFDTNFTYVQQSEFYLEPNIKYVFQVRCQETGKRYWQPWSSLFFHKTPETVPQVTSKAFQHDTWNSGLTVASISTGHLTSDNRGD
As to the kind of experiment: competition ELISA: coated human IL-23, IL-23R-Fc 0.1 ug/ml, peptide titrated. On the procedure: Antagonism of peptide compounds for human interleukin-23 receptor inhibitors, was determined by an ELISA assay.
A 384-well plate was coated with 50 μl/well of human IL-23 at a final concentration of 1 μg/ml and incubated overnight at 4° C. The wells were washed 3 times with 80 μl wash buffer and blocked with 80 μl blocking buffer for 60 minutes at room temperature and washed again. 20 μl of serially diluted test peptides was added to each well and subsequently 20 μl of recombinant human IL-23R-Fc chimera at final concentration of 0.1 μg/ml. The plate was incubated for 60 minutes at room temperature. After the wells were washed, bound IL-23R-Fc was detected with goat anti-hu-lgG1-HRP antibody. Signals were visualized with QuantaBlu Fluorogenic Peroxidase Substrate.
For orientation: In an ELISA, binding on a coated surface is turned into a signal by an enzyme label.
As to B1, the IC50 was 7.87 nM.
For the molecule B2, the IC50 came out at 15.6 nM.
Still for that read-out and setting: the result for B3 reads 9.64 nM.
For the molecule B4, the IC50 turned out to be 3.11 nM.
Same read-out and setting: the result for B5 reads 1.34 nM.
Same read-out and setting: the result for B6 reads 5.74 nM.
The same measure, in the same setting: then B7, with 18.9 nM; and B8, with 12.5 nM; and B9, with 18.8 nM.
With B10, the IC50 was 0.78 nM.
On to B11, for which the IC50 is 11.8 nM.
The same measure, in the same setting: then B12, with 5.42 nM.

A further test has as its target T2, IL-23 receptor on the surface of HEK-Blue IL-23 cells (UniProt Q5VWK5 24-629, limits assumed).
T2 sequence (looked up): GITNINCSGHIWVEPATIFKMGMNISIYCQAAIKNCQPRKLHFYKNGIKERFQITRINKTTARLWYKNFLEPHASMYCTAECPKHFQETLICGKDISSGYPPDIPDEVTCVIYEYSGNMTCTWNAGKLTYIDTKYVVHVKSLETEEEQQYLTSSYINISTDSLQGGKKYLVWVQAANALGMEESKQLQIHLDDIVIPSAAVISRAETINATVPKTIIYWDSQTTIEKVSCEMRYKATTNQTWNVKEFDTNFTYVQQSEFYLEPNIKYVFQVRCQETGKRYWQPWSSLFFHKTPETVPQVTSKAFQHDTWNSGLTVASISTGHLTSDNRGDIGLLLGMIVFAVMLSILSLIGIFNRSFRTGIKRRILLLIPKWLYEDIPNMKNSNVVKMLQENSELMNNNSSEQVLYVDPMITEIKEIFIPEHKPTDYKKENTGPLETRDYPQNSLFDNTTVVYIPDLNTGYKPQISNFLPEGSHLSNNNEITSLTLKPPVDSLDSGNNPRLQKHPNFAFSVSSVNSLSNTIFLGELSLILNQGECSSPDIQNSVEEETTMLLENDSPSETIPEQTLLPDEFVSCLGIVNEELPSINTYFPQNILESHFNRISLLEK
As to the kind of experiment: cell-based or functional assay.
As for B1, the “Inhibition of IL-23 induced pSTAT3 (IC50 nM)” value (“Inhibition” for short) was found to be 5650 nM.
With B2, the “Inhibition” value came out at 9600 nM.
Same read-out and setting: then B3, with 6050 nM.
Still for that read-out and setting: the result for B6 reads 8010 nM; that for B7, 9280 nM.
On the same count and under the same terms, then B8, with 1570 nM.
Turning to B9, the “Inhibition” value was 8110 nM.
Same read-out and setting: the result for B11 reads 10000 nM; that for B12, 1380 nM.
